Measured values: patent US20190330277A1 (PIRBRIGHT INSTITUTE, published 2019)

Columns and labels:
Assay in all cases: biolayer interferometry (Octet), variant on Ni-NTA tip, Fab in solution
[1] = target: bRSV 391-2 sc9 DS-Cav1 Q98C-Q361C (bovine respiratory syncytial virus, …)
[2] = target: bRSV ATue51908 DSCav1 (bovine respiratory syncytial virus, …, UniProt P22167 26-109)
[3] = target: bRSV ATue51908 postF (bovine respiratory syncytial virus, …, UniProt P22167 26-109; P22167 147-513)
[4] = target: bRSV 391-2 sc9-10 DS-Cav1 Q98C-Q361C (bovine respiratory syncytial virus, …)
[5] = target: bRSV 391-2 DSCav1 (bovine respiratory syncytial virus, …, UniProt P22167 26-109)
[6] = target: bRSV ATue51908 sc9-10 DS-Cav1 A149C-Y458C (bovine respiratory syncytial virus, …)
[7] = target: bRSV RB94 postF (bovine respiratory syncytial virus, …, UniProt P23728 26-109; P23728 147-513)
[8] = target: bRSV 391-2 postF (bovine respiratory syncytial virus, …, UniProt P22167 26-109; P22167 147-513)

B1: AM14 Fab (Fab, V domains shown)
VH: EVQLVESGGGVVQPGRSLRLSCAASGFSFSHYAMHWVRQAPGKGLEWVAVISYDGENTYYADSVKGRFSISRDNSKNTVSLQMNSLRPEDTALYYCARDRIVDDYYYYGMDVWGQGATVTVSS
VL: DIQMTQSPSSLSASVGDRVTITCQASQDIKKYLNWYHQKPGKVPELLMHDASNLETGVPSRFSGRGSGTDFTLTISSLQPEDIGTYYCQQYDNLPPLTFGGGTKVEIKR
notes: also called mAb AM14
Kd [1]: 8.6 nM | Kd [2]: 4.8 nM | Kd [3]: > 1000 nM | Kd [4]: 12.8 nM | Kd [5]: 1.8 nM | Kd [6]: 12.8 nM | Kd [7]: > 1000 nM | Kd [8]: > 1000 nM

B2: MPE8 Fab (Fab, V domains shown)
VH: EVQLVESGGGLVKPGGSLRLSCAASGFTFSSYSMNWVRQAPGKGLEWVSSISASSSYSDYADSAKGRFTISRDNAKTSLFLQMNSLRAEDTAIYFCARARATGYSSITPYFDIWGQGTLVTVSS
VL: QSVVTQTPSVSGAPGQRVTISCTGSSSNIGAGYDVHWYQQLPGTAPKLLIYDNNNRPSGVPDRFSASKSGTSASLAITGLQAEDEADYYCQSYDRNLSGVFGTGTKVTVL
notes: also called mAb MPE8
Kd [7]: > 1000 nM | Kd [8]: > 1000 nM

B3: D25 Fab (Fab, V domains shown)
VH: QVQLVQSGAEVKKPGSSVMVSCQASGGPLRNYIINWLRQAPGQGPEWMGGIIPVLGTVHYAPKFQGRVTITADESTDTAYIHLISLRSEDTAMYYCATETALVVSTTYLPHYFDNWGQGTLVTVSS
VL: DIQMTQSPSSLSAAVGDRVTITCQASQDIVNYLNWYQQKPGKAPKLLIYVASNLETGVPSRFSGSGSGTDFSLTISSLQPEDVATYYCQQYDNLPLTFGGGTKVEIK
notes: also called mAb D25
Kd [2]: 10.8 nM | Kd [6]: 420 nM
